To fix the notation:
B1: Atg12~Atg5-Atg16-mCherry complex [modified: conjugated to Atg5 (Atg12~Atg5 protein conjugate) | conjugated to Atg12; conjugated to Atg5 (Atg12~Atg5 protein conjugate); conjugated to Atg12] [S. cerevisiae] / … (parent)
chain 1: MSRILESENETESDESSIISTNNGTAMERSRNNQELRSSPHTVQNRLELFSRRLSQLGLASDISVDQQVEDSSSGTYEQEETIKTNAQTSKQKSHKDEKNIQKIQIKFQPIGSIGQLKPSVCKISMSQSFAMVILFLKRRLKMDHVYCYINNSFAPSPQQNIGELWMQFKTNDELIVSYCASVAFG
chain 2: MNDIKQLLWNGELNVLVSIDPSFLMKGSPREIAVLRIRVPRETYLVNYMPLIWNKIKSFLSFDPLTDSEKYFWFEHNKTPIPWNYPVGVLFDCLAGKSATFTTSFENQVKDVLTFLRIHLVMGDSLPPTIIPIASSKTQAEKFWFHQWKQVCFILNGSSKAIMSLSVNEARKFWGSVITRNFQDFIEISNKISSSRPRHIPLIIQTSRTSGTFRISQPTISMTGVNPTLKDIEGDILDVKEGINGNDVMVICQGIEIPWHMLLYDLYSKLRSFDGFLYITLVPIKGGDKASSEL
chain 3: MGNFIITERKKAKEERSNPQTDSMDDLLIRRLTDRNDKEAHLNELFQDNSGAIGGNIVSHDDALLNTLAILQKELKSKEQEIRRLKEVIALKNKNTERLNDELISGTIENNVLQQKLSDLKKEHSQLVARWLKKTEKETEAMNSEIDGTK
chain 4: MEEQREILEQLKKTLQMLTVEPSKNNQIANEEKEKKENENSWCIL
chain 5: MNNSKTNQQMNTSMGYPLTVYDECNKFQLIVPTLDANIMLWCIGQLSLLNDSNGCKHLFWQPNDKSNVRILLNNYDYGHLFKYLQCQRKCSVYIGEGTLKKYNLTISTSFDNFLDLTPSEEKESLCREDAHEDPVSPKAGSEEEISPNSTSNVVVSRECLDNFMKQLLKLEESLNKLELEQKVTNKEPNHRISGTIDIPEDRSELVNFFTELKTVKQLEDVFQRYHDYERLSQECDSKTEIASDHSKKETKIEVEPPNERSLQITMNQRDNSLYFQLFNNTNSVLAGNCKLKFTDAGDKPTTQIIDMGPHEIGIKEYKEYRYFPYALDLEAGSTIEIENQYGEVIFLGKYGSSPMINLRPPSRLSAESLQASQEPFYSFQIDTLPELDDSSIISTSISLSYDGDDNEKALTWEEL

The variants in the test derive from B1. Description: microscopy-based bead recruitment assay (mCherry signal at cargo mimetic beads). As to conditions: with GST-prApe1(1–45) + Atg19 [S. cerevisiae]; 25 mM HEPES pH 7.5, 150 NaCl and 1 mM DTT; parent: 100; read off a plot.
Regarding chain 2 K57E N84E, the percent of parent is 55%. As for chain 2 K57E, the figure is 68%; as for chain 2 N84E, 70%.

Values taken from paper PMC5148612.
